Assay results reported in publication PMC3137634 (2011).

Columns and labels:
Human TNFR1/Fc [1] = target: T1, Human TNFR1/Fc (human, UniProt P19438 30-211); experiment: SPR
T1 chain: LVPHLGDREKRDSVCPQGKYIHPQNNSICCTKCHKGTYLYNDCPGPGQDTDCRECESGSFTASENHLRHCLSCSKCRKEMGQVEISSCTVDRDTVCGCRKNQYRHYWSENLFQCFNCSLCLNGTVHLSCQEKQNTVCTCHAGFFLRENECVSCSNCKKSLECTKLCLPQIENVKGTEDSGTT

Human TNFR1/Fc [2] = target: T1, Human TNFR1/Fc; experiment: SPR

B1: recombinant HP986 (natural protein)
chain: METFFSLHVPNRRIKQNGIIDEKSLEKIQERKNLSSLLYEHRARIIPLYKRINENHAKNKTINICENNLKLFYKDHQVCVNIDKKEIKLRYSEDEDDFRKYIIGGWFEEYIYCELLELLDKQVICDLRLNMILGVGNTNATQGDKHPIYTELDIAFSDGKNLYVAECKSGELKNKGVLAALSADAQIFGGANAKCILISIDGNLGQVLQEKVKILNIEFIFKYFKKNIENYINNSRR
Human TNFR1/Fc [1]
  Kd: 72.1 nM
Human TNFR1/Fc [2]
  Ka: 1.39e+07 M⁻¹
